Reference: US20260049143A1 (KYMAB, published 2026)

What was measured:
[1] = target: T1, human ICOS expressed on cells (human, UniProt Q9Y6W8 21-199); assay: cell-based or functional assay
T1 sequence: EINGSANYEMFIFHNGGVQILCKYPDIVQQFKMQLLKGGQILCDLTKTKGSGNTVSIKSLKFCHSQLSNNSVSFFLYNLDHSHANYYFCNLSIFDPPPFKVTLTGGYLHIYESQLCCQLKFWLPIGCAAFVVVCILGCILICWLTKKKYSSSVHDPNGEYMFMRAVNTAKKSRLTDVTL

[2] = target: T2, mouse PD-L1 expressed on CHO-S cells (mouse, UniProt Q9EP73 19-290); assay: flow cytometry on CHO cells expressing mouse PD-L1, anti-human IgG PE detection
T2 construct: also called mPD-L1; CHO mouse PD-L1
Method: (§1) CHO-S cells untransfected (referred to as WT) or transfected with mPD-L1 were diluted in FACS buffer (PBS+1% w/v BSA+0.1% w/v sodium azide) and were distributed to a 96-well V-bottom plate (Greiner) at a density of 5×10⁴ cells per well. […] Plates were centrifuged at 300×g for 3 minutes to supernatant aspirated. 50 μL antibody or mAb² solution were added to cells and incubated at 4° C. for 1 hour. Cells were washed with 150 μL of PBS and centrifuged at 300 g for 3 minutes. Supernatant was aspirated and 150 μL PBS added. This wash step was repeated. […] Cells were incubated for 1 hour at 4° C. in the dark. Cells were washed as previously described. To fix cells, 100 μL 4% v/v paraformaldehyde was added and cells incubated for 20 minutes at 4° C., cells were pelleted by centrifugation at 300×g and the plates resuspended in 100 μL FACS buffer.

[3] = target: T1, human ICOS expressed on cells; assay: cell-based or functional assay; remark: listed apart in the source
[4] = target: FcγRIIIa on Jurkat NFAT luciferase v-variant effector cells (Promega) (human, UniProt P08637 17-254); assay: cell-based or functional assay
[5] = target: T3, human PD-L1 expressed on cells (human, UniProt Q9NZQ7 19-290); assay: flow cytometry on CHO cells expressing human PD-L1, anti-human IgG PE detection
T3 construct: also called CHO human PD-L1; CHO-S cells transfected with human PD-L1
Method: as §1, with “the cDNA coding for human PD-L1” for “mPD-L1”

[6] = target: T4, mouse ICOS-mFc (Chimerigen) (mouse, UniProt Q9WVS0 21-141, limits assumed); assay: DELFIA ELISA, coated mouse ICOS-mFc, mean
T4 construct: Bought fusion; also called mICOS; recombinant mouse ICOS protein; not shown: mouse Fc
T4 sequence: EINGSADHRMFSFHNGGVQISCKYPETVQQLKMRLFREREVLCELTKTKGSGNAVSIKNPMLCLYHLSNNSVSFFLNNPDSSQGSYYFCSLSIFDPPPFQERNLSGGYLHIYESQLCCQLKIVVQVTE
Method: Recombinant ICOS proteins, human ICOS-mFc or mouse ICOS-mFc (Chimerigen) were diluted in 1×PBS and added to Black Hi-bind plates (Griener) at 1 μg/ml, 50 μl/well. Recombinant PD-L1 proteins, human PD-L1-Flag-His or mouse-His were diluted in 1×PBS and added to Black Hi-bind plates (Griener) at 4 μg/ml, 50 μl/well. The plates were left overnight at 4° C. The next day plates were washed 3× with 300 μl/well of 1×PBS+0.1% Tween and blocked with 200 μl/well of 1×PBS+1% BSA blocking buffer for 1 hr at RT on a plate shaker. Plates were washed 3× with 300 μl/well of 1×PBS+0.1% Tween.
However, human-PD-L1 mAb² antibodies were diluted in 1×PBS+0.1% BSA buffer and diluted 1 in 2 from a starting working concentration of 0.066 μM over an 11 point titration. Titrated antibodies were added to the plates, 50 μl/well and left to incubate for 1 hr at R.T on a plate shaker. Plates were washed 3× with 300 μl/well of 1×PBS+0.1% Tween.
DELFIA® Eu-labelled Anti-human IgG(Perkin-Elmer) was diluted 1:500 in DELFIA Assay buffer (Perkin-Elmer) and added to the assay plate (50 μl/well), left to incubate for 1 hr at RT on a plate shaker. […] After incubation, assay was read on Envision plate reader (Perkin Elmer), Time-resolved fluorescence (TRF) was measured at 615 nm.

FcγRIIIa on Jurkat NFAT luciferase v-variant effector cells (Promega), sequence (P08637 other isoform, or with tags, fused parts or gaps mutant limits assumed): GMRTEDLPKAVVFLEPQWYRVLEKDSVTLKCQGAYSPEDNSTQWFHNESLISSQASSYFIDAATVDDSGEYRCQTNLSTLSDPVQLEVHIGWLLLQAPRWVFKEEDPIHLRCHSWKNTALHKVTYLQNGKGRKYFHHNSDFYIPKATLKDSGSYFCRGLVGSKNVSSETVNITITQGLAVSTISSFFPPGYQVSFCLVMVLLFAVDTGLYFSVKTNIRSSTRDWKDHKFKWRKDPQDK
T2 sequence (Q9EP73 19-290 limits assumed): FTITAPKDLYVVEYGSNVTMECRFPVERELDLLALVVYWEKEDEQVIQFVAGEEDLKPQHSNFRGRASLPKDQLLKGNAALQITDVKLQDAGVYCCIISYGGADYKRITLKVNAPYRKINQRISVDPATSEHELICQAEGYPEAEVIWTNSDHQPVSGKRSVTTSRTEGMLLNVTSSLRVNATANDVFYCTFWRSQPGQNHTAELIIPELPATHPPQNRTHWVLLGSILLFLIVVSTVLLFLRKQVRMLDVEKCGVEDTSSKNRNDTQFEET
T3 sequence (Q9NZQ7 19-290 limits assumed): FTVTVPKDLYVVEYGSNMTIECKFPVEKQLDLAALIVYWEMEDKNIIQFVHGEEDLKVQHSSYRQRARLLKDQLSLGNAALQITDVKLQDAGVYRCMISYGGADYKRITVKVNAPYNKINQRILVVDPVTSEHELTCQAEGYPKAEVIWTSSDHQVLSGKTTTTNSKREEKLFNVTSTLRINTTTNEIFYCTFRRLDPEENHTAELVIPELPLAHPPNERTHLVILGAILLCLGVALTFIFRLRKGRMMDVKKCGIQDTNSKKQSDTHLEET

B1: STIM003 (antibody, human IgG1, kappa)
heavy: not shown
light: EIVLTQSPGTLSLSPGERATLSCRASQSVSRSYLAWYQQKRGQAPRLLIYGASSRATGIPDRFSGDGSGTDFTLSISRLEPEDFAVYYCHQYDMSPFTFGPGTKVDIKRTVAAPSVFIFPPSDEQLKSGTASVVCLLNNFYPREAKVQWKVDNALQSGNSQESVTEQDSKDSTYSLSSTLTLSKADYEKHKVYACEVTHQGLSSPVTKSFNRGEC
notes: also called STIM003 IgG1
EC50 of IFN-γ release, plate-bound antibody, human T cells with CD3/CD28 beads, Median [1]: 5.55 nM | EC50 of IFN-γ release, plate-bound antibody, human T cells with CD3/CD28 beads, donor 276 [1]: 7.1 nM | EC50 of IFN-γ release, plate-bound antibody, human T cells with CD3/CD28 beads, donor 278 [1]: 3.8 nM | EC50 of IFN-γ release, plate-bound antibody, human T cells with CD3/CD28 beads, donor 289 [1]: ~4 nM | EC50 of IFN-γ release, plate-bound antibody, human T cells with CD3/CD28 beads, donor 295 [1]: ~11.6 nM | binding result [2]: no binding (tested: about 2e-8 M (log M -7.7)) | EC50, ADCC (BATDA dye release), ICOS-transfected CCRF-CEM targets, NK cells, Donor 326 [3]: 0.0212 nM | EC50, ADCC (BATDA dye release), ICOS-transfected CCRF-CEM targets, NK cells, Donor 334 [3]: 0.0037 nM | EC50, ADCC (BATDA dye release), ICOS-transfected CCRF-CEM targets, NK cells, Donor 341 [3]: 0.0067 nM | EC50, ADCC (BATDA dye release), ICOS-transfected CCRF-CEM targets, NK cells, Median [3]: 0.0105 nM | EC50, NFAT luciferase reporter, CHO human ICOS target cells, N=1 [4]: 0.326 nM | EC50, NFAT luciferase reporter, CHO human ICOS target cells, N=2 [4]: 0.477 nM | EC50, NFAT luciferase reporter, CHO human ICOS target cells, N=3 [4]: 0.24 nM | EC50, NFAT luciferase reporter, CHO human ICOS target cells, mean [4]: 0.347 nM | EC50, NFAT luciferase reporter, CHO mouse ICOS target cells, N=1 [4]: 0.508 nM | EC50, NFAT luciferase reporter, CHO mouse ICOS target cells, N=2 [4]: 0.754 nM | EC50, NFAT luciferase reporter, CHO mouse ICOS target cells, N=3 [4]: 0.703 nM | EC50, NFAT luciferase reporter, CHO mouse ICOS target cells, mean [4]: 0.655 nM | binding result [5]: no binding (tested: about 2e-7 M (log M -6.7))

B2: STIM003_289 (bispecific antibody, V domains shown, not shown: a dimerising Fc or GST)
VH: EVQLVESGGGVVRPGGSLRLSCVASGVTFDDYGMSWVRQAPGKGLEWVSGINWNGGDTDYSDSVKGRFTISRDNAKNSLYLQMNSLRAEDTALYYCARDFYGSGSYYHVPFDYWGQGILVTVSS
VL: EIVLTQSPGTLSLSPGERATLSCRASQSVSRSYLAWYQQKRGQAPRLLIYGASSRATGIPDRFSGDGSGTDFTLSISRLEPEDFAVYYCHQYDMSPFTFGPGTKVDIK
EC50 of IFN-γ release, plate-bound antibody, human T cells with CD3/CD28 beads, Median [1]: 8.1 nM | EC50 of IFN-γ release, plate-bound antibody, human T cells with CD3/CD28 beads, donor 276 [1]: ~6 nM | EC50 of IFN-γ release, plate-bound antibody, human T cells with CD3/CD28 beads, donor 278 [1]: ~3.8 nM | EC50 of IFN-γ release, plate-bound antibody, human T cells with CD3/CD28 beads, donor 289 [1]: 10.2 nM | EC50 of IFN-γ release, plate-bound antibody, human T cells with CD3/CD28 beads, donor 295 [1]: 12.7 nM | EC50, ADCC (BATDA dye release), ICOS-transfected CCRF-CEM targets, NK cells, Donor 326 [3]: 0.0111 nM | EC50, ADCC (BATDA dye release), ICOS-transfected CCRF-CEM targets, NK cells, Donor 334 [3]: 0.0183 nM | EC50, ADCC (BATDA dye release), ICOS-transfected CCRF-CEM targets, NK cells, Donor 341 [3]: 0.0066 nM | EC50, ADCC (BATDA dye release), ICOS-transfected CCRF-CEM targets, NK cells, Median [3]: 0.012 nM

B3: STIM001 (antibody, human IgG1, kappa)
heavy: not shown
light: DIVMTQSPLSLPVTPGEPASISCRSSQSLLHSNEYNYLDWYLQKPGQSPQLLIFLGSNRASGVPDRFSGSGSGTDFTLKITRVEAEDVGIYYCMQSLQTPLTFGGGTKVEIKRTVAAPSVFIFPPSDEQLKSGTASVVCLLNNFYPREAKVQWKVDNALQSGNSQESVTEQDSKDSTYSLSSTLTLSKADYEKHKVYACEVTHQGLSSPVTKSFNRGEC
notes: also called STIM001 IgG1; STIM0001
EC50 of IFN-γ release, plate-bound antibody, human T cells with CD3/CD28 beads, Median [1]: 10.7 nM | EC50 of IFN-γ release, plate-bound antibody, human T cells with CD3/CD28 beads, donor 276 [1]: ~9.9 nM | EC50 of IFN-γ release, plate-bound antibody, human T cells with CD3/CD28 beads, donor 278 [1]: ~10.2 nM | EC50 of IFN-γ release, plate-bound antibody, human T cells with CD3/CD28 beads, donor 289 [1]: ~11.2 nM | EC50 of IFN-γ release, plate-bound antibody, human T cells with CD3/CD28 beads, donor 295 [1]: 14.5 nM | binding result [2]: no binding (tested: about 2e-8 M (log M -7.7)) | EC50, ADCC (BATDA dye release), ICOS-transfected CCRF-CEM targets, NK cells, Donor 326 [3]: 0.0426 nM | EC50, ADCC (BATDA dye release), ICOS-transfected CCRF-CEM targets, NK cells, Donor 334 [3]: 0.0205 nM | EC50, ADCC (BATDA dye release), ICOS-transfected CCRF-CEM targets, NK cells, Donor 341 [3]: 0.0076 nM | EC50, ADCC (BATDA dye release), ICOS-transfected CCRF-CEM targets, NK cells, Median [3]: 0.0236 nM | EC50 [6]: 10.6 nM | EC50, NFAT luciferase reporter, CHO human ICOS target cells, N=1 [4]: 0.456 nM | EC50, NFAT luciferase reporter, CHO human ICOS target cells, N=2 [4]: 0.247 nM | EC50, NFAT luciferase reporter, CHO human ICOS target cells, N=3 [4]: 0.147 nM | EC50, NFAT luciferase reporter, CHO human ICOS target cells, mean [4]: 0.283 nM | EC50, NFAT luciferase reporter, CHO mouse ICOS target cells, N=1 [4]: 0.479 nM | EC50, NFAT luciferase reporter, CHO mouse ICOS target cells, N=2 [4]: 0.534 nM | EC50, NFAT luciferase reporter, CHO mouse ICOS target cells, N=3 [4]: 0.579 nM | EC50, NFAT luciferase reporter, CHO mouse ICOS target cells, mean [4]: 0.53 nM | binding result [5]: no binding (tested: about 2e-7 M (log M -6.7))

B4: STIM001_289 (bispecific antibody, V domains shown, not shown: a dimerising Fc or GST)
VH: QVQVVQSGAEVKKPGASVKVSCKASGYTFSTFGITWVRQAPGQGLEWMGWISAYNGDTNYAQNLQGRVIMTTDTSTSTAYMELRSLRSDDTAVYYCARSSGHYYYYGMDVWGQGTTVTVSS
VL: DIVMTQSPLSLPVTPGEPASISCRSSQSLLHSNEYNYLDWYLQKPGQSPQLLIFLGSNRASGVPDRFSGSGSGTDFTLKITRVEAEDVGIYYCMQSLQTPLTFGGGTKVEIK
EC50 of IFN-γ release, plate-bound antibody, human T cells with CD3/CD28 beads, Median [1]: 9.45 nM | EC50 of IFN-γ release, plate-bound antibody, human T cells with CD3/CD28 beads, donor 276 [1]: ~10 nM | EC50 of IFN-γ release, plate-bound antibody, human T cells with CD3/CD28 beads, donor 278 [1]: 8.9 nM | EC50 of IFN-γ release, plate-bound antibody, human T cells with CD3/CD28 beads, donor 289 [1]: 7.1 nM | EC50 of IFN-γ release, plate-bound antibody, human T cells with CD3/CD28 beads, donor 295 [1]: 11.9 nM | EC50, ADCC (BATDA dye release), ICOS-transfected CCRF-CEM targets, NK cells, Donor 326 [3]: 0.0309 nM | EC50, ADCC (BATDA dye release), ICOS-transfected CCRF-CEM targets, NK cells, Donor 334 [3]: 0.0041 nM | EC50, ADCC (BATDA dye release), ICOS-transfected CCRF-CEM targets, NK cells, Donor 341 [3]: ~0.0103 nM | EC50, ADCC (BATDA dye release), ICOS-transfected CCRF-CEM targets, NK cells, Median [3]: 0.0175 nM
